The values below are quoted from earlier work in PMC12858339.

A word on the Kd: it is the free concentration of one partner at which half of the binding sites on the other are occupied at equilibrium, for simple one-to-one binding.

The data set concerns the target Calmodulin (Homo sapiens) (UniProt P0DP23).

On to HIV-1 MA MA (from UniProt O93182), for which the Kd is 2000 nM.
